# Measured values from patent publication US20180346564A1 (TEIJIN PHARMA, published 2018).
# Substitutions are numbered along the chain they refer to. Names and notes keep the numbering of the source. [ ]: non-standard residue; d: D form. pT = C[C@@H](OP(=O)(O)O)[C@H](N)C(=O)O; pS = N[C@@H](COP(=O)(O)O)C(=O)O
# T1: Peptide No. 4, pT212/pS214, H-GCGSPGTPGSRSR(pT)P(pS)LPTPPTREPK-OH (human, phosphothreonine (pT) at peptide position 14 (tau Thr212); phosphoserine (pS) at peptide position 16 (tau Ser214))
# T1 peptide: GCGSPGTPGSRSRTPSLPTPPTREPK
# T2: Peptide No. 6, pT231, H-KVAVVR(pT)PPKSPS-OH (human)
# T2 peptide: H-KVAVVR[pT]PPKSPS-OH
# T3: Peptide No. 8, pS412, H-NV(pS)STGSC-OH (human, SMILES CC(C)[C@H](NC(=O)[C@@H](N)CC(N)=O)C(=O)N[C@@H](COP(=O)(O)O)C(=O)N[C@@H](CO)C(=O)N[C@H](C(=O)NCC(=O)N[C@@H](CO)C(=O)N[C@@H](CS)C(=O)O)[C@@H](C)O)
# T3 peptide: H-NV[pS]STGSC-OH
# T4: Peptide No. 2, pS199, H-SGYS(pS)PGSPGC-OH (human, SMILES N[C@@H](CO)C(=O)NCC(=O)N[C@@H](Cc1ccc(O)cc1)C(=O)N[C@@H](CO)C(=O)N[C@@H](COP(=O)(O)O)C(=O)N1CCC[C@H]1C(=O)NCC(=O)N[C@@H](CO)C(=O)N1CCC[C@H]1C(=O)NCC(=O)N[C@@H](CS)C(=O)O)
# T4 peptide: H-SGYS[pS]PGSPGC-OH
# T5: Peptide No. 5, pT217, H-GC-GSRSRTPSLP(pT)PPTREPKKVAVV-OH (human, phosphothreonine (pT) at peptide position 13 (tau Thr217))
# T5 peptide: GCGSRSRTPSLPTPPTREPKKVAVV
# T6: Peptide No. 3, pS202, H-SSPG(pS)PGTPC-OH (human, SMILES C[C@@H](O)[C@H](NC(=O)CNC(=O)[C@@H]1CCCN1C(=O)[C@H](COP(=O)(O)O)NC(=O)CNC(=O)[C@@H]1CCCN1C(=O)[C@H](CO)NC(=O)[C@@H](N)CO)C(=O)N1CCC[C@H]1C(=O)N[C@@H](CS)C(=O)O)
# T6 peptide: H-SSPG[pS]PGTPC-OH
# T7: Peptide No. 1, pS46, H-GLKE(pS)PLQT-OH (human, SMILES CC(C)C[C@H](NC(=O)CN)C(=O)N[C@@H](CCCCN)C(=O)N[C@@H](CCC(=O)O)C(=O)N[C@@H](COP(=O)(O)O)C(=O)N1CCC[C@H]1C(=O)N[C@@H](CC(C)C)C(=O)N[C@@H](CCC(N)=O)C(=O)N[C@H](C(=O)O)[C@@H](C)O)
# T7 peptide: H-GLKE[pS]PLQT-OH
# T8: Peptide No. 7, pS396/pS400/pS404, H-GC-RENAKAKTDHGAEIVYK(pS)PVV(pS)GDT(pS)PRHL-OH (human, phosphoserine (pS) at peptide positions 20, 24 and 28 (tau Ser396, Ser400, Ser404))
# T8 peptide: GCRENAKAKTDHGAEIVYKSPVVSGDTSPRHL
# B1: humanized antibody L48H61 (antibody, human IgG1, kappa, V domains shown)
# VH: EVQLVESGGGLVQPGGSLRLSCAASGFTFNSFALNWVRQAPGKGLEWVVHIRSKTNNYATFYADSVKDRFTVSRDDSKNTAYLQMNSLKTEDTATYYCVRRGPRDSWFGYWGQGTLVTVSS
# VL: DIVMTQSPLSLPVTLGDPASISCRSSQNIVHSNGNTYLEWYQQKPGQSPQLLIYTVSNRFSGVPDRFSGSGSGTDFTLKISRVEAEDLGVYYCFQGSHLPLTFGGGTKVEIKR
# notes: VL48/VH61, human IgG1/kappa
# B2: humanized antibody L48H62 (antibody, human IgG1, kappa, V domains shown)
# VH: B1 VH with T28A
# VL: B1 VL
# notes: VL48/VH62, human IgG1/kappa
# B3: humanized antibody L48H64 (antibody, human IgG1, kappa, V domains shown)
# VH: B1 VH with D64A, K78Q
# VL: B1 VL
# notes: VL48/VH64, human IgG1/kappa
# B4: humanized antibody L50H11 (antibody, human IgG1, kappa, V domains shown)
# VH: B1 VH with N30S, V49G, D64A, K78Q
# VL: B1 VL with Q50R
# notes: VL50/VH11, human IgG1/kappa
# B5: Humanized × [MAPT_H] mAb (Ta1505 VL46/VH11) IgG4 S228P/Kappa (CX) (antibody)
# heavy: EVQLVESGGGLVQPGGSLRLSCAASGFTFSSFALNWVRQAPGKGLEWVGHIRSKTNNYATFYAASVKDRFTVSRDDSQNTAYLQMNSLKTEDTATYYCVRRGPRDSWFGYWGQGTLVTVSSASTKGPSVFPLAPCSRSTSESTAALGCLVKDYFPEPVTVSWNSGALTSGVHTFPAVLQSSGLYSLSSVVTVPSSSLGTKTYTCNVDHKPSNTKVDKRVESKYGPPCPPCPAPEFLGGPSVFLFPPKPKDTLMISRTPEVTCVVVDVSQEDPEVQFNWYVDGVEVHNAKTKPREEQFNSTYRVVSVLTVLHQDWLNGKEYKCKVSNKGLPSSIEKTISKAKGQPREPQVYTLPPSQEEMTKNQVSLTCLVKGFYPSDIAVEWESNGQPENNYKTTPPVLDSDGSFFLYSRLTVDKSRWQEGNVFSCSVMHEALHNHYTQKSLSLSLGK
# light: DIVMTQSPLSLPVTLGEPASISCRSSQSIVHSNGNTYLEWYLQKPGQSPQLLIYTVSNRFSGVPDRFSGSGSGTDFTLKISRVEAEDLGVYYCFQGSHLPLTFGGGTKVEIKRTVAAPSVFIFPPSDEQLKSGTASVVCLLNNFYPREAKVQWKVDNALQSGNSQESVTEQDSKDSTYSLSSTLTLSKADYEKHKVYACEVTHQGLSSPVTKSFNRGEC
# Biological target: T9, His-tagged non-phosphorylated tau protein 4R0N (human, UniProt P10636 2-758)
# T9 construct: Produced by Escherichia coli; negative control in SPR; also called ATGen Cat. No. ATGP0795
# Test: SPR Biacore T200, antigen immobilized
# Experimental: The binding affinities of the hyperphosphorylated tau protein 4R2N (hpTau), non-phosphorylated tau protein 4R0N, monophosphorylated tau peptide 1×P, triphosphorylated tau peptide 3×P, and non-phosphorylated tau peptide Non P with each antibody were measured with an SPR system Biacore T200 (GE Healthcare Japan), in accordance with the instruction manual for evaluation attached to the system.
# The His-tagged hpTau or Tau proteins were each immobilized on a sensor chip using an HBS-N buffer (code No. BR-1003-69) as the immobilization reaction solution and allowing a nickel chloride solution to react with the NTA sensor chip for bonding Ni to NTA. Subsequently, the sensor chip was activated with a mixed solution of N-ethyl-N′-(3-dimethylaminopropyl)-carbodiimide hydrochloride (1-ethyl-3-(3-dimethylaminopropyl)carbodiimide hydrochloride: EDC) and N-hydroxysuccinimide (NHS). A solution of each of the His-tagged proteins, adjusted to a concentration of 100 to 500 ng/mL with a 4-(2-hydroxyethyl)-1-piperazineethanesulfonic acid (HEPES) buffer (0.01 M HEPES, 150 mM KCl, 2 mM DTT, 1 mM EDTA, pH 7.2), was applied to the sensor chip, whereby the protein was immobilized on the sensor chip through covalent bonds with the Ni-NTA. The remaining active NHS was blocked with ethanolamine, and Ni ions were removed with an EDTA solution (Ni-affinity amine coupling: see International Publication No. WO2005/022156). The antigen peptides (1×P, 3×P, and Non P) were each immobilized on a sensor chip by activating the NTA sensor chip with a mixed solution of N-ethyl-N′-(3-dimethylaminopropyl)-carbodiimide (EDC) hydrochloride and N-hydroxysuccinimide (NHS), and then applying a solution of the antigen peptide diluted with a 10 mM sodium acetate buffer (pH: 4 to 4.5) to 1 to 10 μM to the sensor chip, whereby the peptide was covalently bound to the sensor chip. The remaining active NHS was blocked with ethanolamine. Thus, sensor chips immobilized respectively with the proteins and peptides mentioned above were produced.
# A CAPS buffer (pH 10.5) was applied to these sensor chips at 37° C. to stabilize the protein- or peptide-immobilized surfaces of the sensor chips.
# T9 sequence (P10636 other isoform, or with tags, fused parts or gaps limits assumed): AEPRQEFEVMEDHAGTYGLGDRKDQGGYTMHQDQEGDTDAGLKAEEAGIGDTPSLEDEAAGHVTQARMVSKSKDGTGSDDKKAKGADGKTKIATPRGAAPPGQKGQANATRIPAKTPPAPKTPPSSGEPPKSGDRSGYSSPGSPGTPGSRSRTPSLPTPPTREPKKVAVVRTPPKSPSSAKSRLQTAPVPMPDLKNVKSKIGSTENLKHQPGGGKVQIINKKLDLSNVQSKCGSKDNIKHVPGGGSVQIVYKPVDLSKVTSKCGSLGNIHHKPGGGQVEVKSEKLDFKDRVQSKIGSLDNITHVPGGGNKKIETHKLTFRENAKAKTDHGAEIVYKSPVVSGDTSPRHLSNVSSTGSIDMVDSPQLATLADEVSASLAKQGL
row,Binder,binding result
1,B1,no binding (tested: 0.2 to 1 nM)
2,B2,no binding (tested: 0.2 to 1 nM)
3,B3,no binding (tested: 0.2 to 1 nM)
4,B4,no binding (tested: 0.2 to 1 nM)

# Biological target: T1, Peptide No. 4, pT212/pS214, …
# Test: ELISA, coated peptide
# Procedure, shortened: (§1)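 Wells were coated overnight at 4 °C with 50 μL of peptide, or its bovine serum albumin or keyhole limpet hemocyanin conjugate, at 1 μg/mL in cold PBS, then blocked overnight at 4 °C with 3% BSA-PBS. Purified antibody at 150 ng/mL in 3% BSA-PBS was applied for 90 minutes at room temperature, followed by alkaline phosphatase-labelled goat anti-human IgG (H+L) diluted 2000-fold for 60 minutes. Antibody binding was recorded as absorbance. After 40 minutes of pNPP development, plates were read at 405 nm against a 550 nm reference.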
row,Binder,binding result
1,B1,no binding (tested: OD value <0.5; antibody 150 ng/mL)
2,B2,no binding (tested: OD value <0.5; antibody 150 ng/mL)
3,B3,no binding (tested: OD value <0.5; antibody 150 ng/mL)
4,B4,no binding (tested: OD value <0.5; antibody 150 ng/mL)

# Biological target: T2, Peptide No. 6, pT231, …
# Test: ELISA, coated peptide
# Procedure, shortened: as §1
row,Binder,binding result
1,B1,no binding (tested: OD value <0.5; antibody 150 ng/mL)
2,B2,no binding (tested: OD value <0.5; antibody 150 ng/mL)
3,B3,no binding (tested: OD value <0.5; antibody 150 ng/mL)
4,B4,no binding (tested: OD value <0.5; antibody 150 ng/mL)

# Biological target: T3, Peptide No. 8, pS412, H-NV(pS)STGSC-OH
# Test: ELISA, coated peptide
# Procedure, shortened: as §1
row,Binder,binding result
1,B1,no binding (tested: OD value <0.5; antibody 150 ng/mL)
2,B2,no binding (tested: OD value <0.5; antibody 150 ng/mL)
3,B3,no binding (tested: OD value <0.5; antibody 150 ng/mL)
4,B4,no binding (tested: OD value <0.5; antibody 150 ng/mL)

# Biological target: T4, Peptide No. 2, pS199, …
# Test: ELISA, coated peptide
# Procedure, shortened: as §1
row,Binder,binding result
1,B1,no binding (tested: OD value <0.5; antibody 150 ng/mL)
2,B2,no binding (tested: OD value <0.5; antibody 150 ng/mL)
3,B3,no binding (tested: OD value <0.5; antibody 150 ng/mL)
4,B4,no binding (tested: OD value <0.5; antibody 150 ng/mL)

# Biological target: T5, Peptide No. 5, pT217, …
# Test: ELISA, coated peptide
# Procedure, shortened: as §1
row,Binder,binding result
1,B1,no binding (tested: OD value <0.5; antibody 150 ng/mL)
2,B2,no binding (tested: OD value <0.5; antibody 150 ng/mL)
3,B3,no binding (tested: OD value <0.5; antibody 150 ng/mL)
4,B4,no binding (tested: OD value <0.5; antibody 150 ng/mL)

# Biological target: T6, Peptide No. 3, pS202, H-SSPG(pS)PGTPC-OH
# Test: ELISA, coated peptide
# Procedure, shortened: as §1
row,Binder,binding result
1,B1,no binding (tested: OD value <0.5; antibody 150 ng/mL)
2,B2,no binding (tested: OD value <0.5; antibody 150 ng/mL)
3,B3,no binding (tested: OD value <0.5; antibody 150 ng/mL)
4,B4,no binding (tested: OD value <0.5; antibody 150 ng/mL)

# Biological target: T7, Peptide No. 1, pS46, H-GLKE(pS)PLQT-OH
# Test: ELISA, coated peptide
# Procedure, shortened: as §1
row,Binder,binding result
1,B1,no binding (tested: OD value <0.5; antibody 150 ng/mL)
2,B2,no binding (tested: OD value <0.5; antibody 150 ng/mL)
3,B3,no binding (tested: OD value <0.5; antibody 150 ng/mL)
4,B4,no binding (tested: OD value <0.5; antibody 150 ng/mL)

# Biological target: T8, Peptide No. 7, pS396/pS400/pS404, …
# Test: ELISA, coated peptide
# Procedure, shortened: as §1
row,Binder,binding result
1,B1,no binding (tested: OD value <0.5; antibody 150 ng/mL)
2,B2,no binding (tested: OD value <0.5; antibody 150 ng/mL)
3,B3,no binding (tested: OD value <0.5; antibody 150 ng/mL)
4,B4,no binding (tested: OD value <0.5; antibody 150 ng/mL)

# Biological target: Ser413 phosphorylated tau protein (pSer413-Tau) derived from Alzheimer's disease patient brain homogenate (human, UniProt P10636-8 2-441, limits assumed, phosphoserine at Ser413 (numbering of SEQ ID NO: 1))
# Test: cell-based or functional assay
# Chain of Ser413 phosphorylated tau protein (pSer413-Tau) derived from Alzheimer's disease patient brain homogenate (P10636 other isoform, or with tags, fused parts or gaps limits assumed): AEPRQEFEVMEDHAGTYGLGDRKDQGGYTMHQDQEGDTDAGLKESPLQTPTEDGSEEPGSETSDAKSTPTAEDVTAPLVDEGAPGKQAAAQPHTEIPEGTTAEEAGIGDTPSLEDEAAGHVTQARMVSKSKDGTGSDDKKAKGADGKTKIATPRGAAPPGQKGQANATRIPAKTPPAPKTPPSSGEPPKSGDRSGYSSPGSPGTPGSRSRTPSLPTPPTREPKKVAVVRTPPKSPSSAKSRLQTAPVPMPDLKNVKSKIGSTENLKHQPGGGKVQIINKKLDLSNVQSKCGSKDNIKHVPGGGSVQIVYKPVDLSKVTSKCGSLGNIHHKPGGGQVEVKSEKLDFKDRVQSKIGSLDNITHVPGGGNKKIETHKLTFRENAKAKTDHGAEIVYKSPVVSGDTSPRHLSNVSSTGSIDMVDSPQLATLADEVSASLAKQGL
row,Binder,"IC50 of the fall of the AT8 AlphaLISA signal with the antibody concentration (signal falls from about 7500 to about 4400 at the highest concentration, about 400 nM; no lower plateau) [nM]"
1,B5,175
